Assay results from US20110318339A1 (FABRUS, published 2011).
Changes are numbered by the printed parent chain. Names and notes keep the numbering of the source.

B1: Fab VH5-51_IGHD5-18*01>3_IGHJ4*01 G100K/G104T G24T/S28R/G35V & V3-4_IGLJ1*01 (Fab, V domains shown)
VH: EVQLVQSGAEVKKPGESLKISCKTSGYRFTSYWIVWVRQMPGKGLEWMGIIYPGDSDTRYSPSFQGQVTISADKSISTAYLQWSSLKASDTAMYYCARRKYSYTYDYFDYWGQGTLVTVSS
VL: QTVVTQEPSFSVSPGGTVTLTCGLSSGSVSTSYYPSWYQQTPGQAPRTLIYSTNTRSSGVPDRFSGSILGNKAALTITGAQADDESDYYCVLYMGSGISYVFGTGTKVTVL
notes: Fab made in E. coli: VH on CH1 with His6 and Flag tags (Plasmid A), VL on lambda CL (Plasmid E); also called H: KT TRV & L: wt
B2: Fab VH5-51_IGHD5-18*01>3_IGHJ4*01 G100K/G104T G24T/S28R/G35V & V3-4_IGLJ1*01 V91L/S96P (Fab, V domains shown)
VH: B1 VH
VL: B1 VL with V91L, S96P
notes: Fab made in E. coli: VH on CH1 with His6 and Flag tags (Plasmid A), VL on lambda CL (Plasmid E); also called H: KT TRV & L: LP
B3: Fab VH5-51_IGHD5-18*01>3_IGHJ4*01 G100K/G104T G24T/S28R/G35V & V3-4_IGLJ1*01 V91L/S96P S52G (Fab, V domains shown)
VH: B1 VH
VL: B1 VL with S52G, V91L, S96P
notes: Fab made in E. coli: VH on CH1 with His6 and Flag tags (Plasmid A), VL on lambda CL (Plasmid E); also called H: KT TRV & L: LP S52G
B4: Fab VH5-51_IGHD5-18*01>3_IGHJ4*01 G100K/G104T G24T/S28R/G35V & V3-4_IGLJ1*01 V91L/S96P S52M (Fab, V domains shown)
VH: B1 VH
VL: B1 VL with S52M, V91L, S96P
notes: Fab made in E. coli: VH on CH1 with His6 and Flag tags (Plasmid A), VL on lambda CL (Plasmid E); also called H: KT TRV & L: LP S52M
B5: Fab VH1-46_IGHD6-6*01_IGHJ1*01 S102A/S103P/S104F/H111F G56A & L6_IGKJ1*01 S28N/S30D/S31H (Fab, V domains shown)
VH: QVQLVQSGAEVKKPGASVKVSCKASGYTFTSYYMHWVRQAPGQGLEWMGIINPSGASTSYAQKFQGRVTMTRDTSTSTVYMELSSLRSEDTAVYYCAREEYAPFSAEYFQFWGQGTLVTVSS
VL: EIVLTQSPATLSLSPGERATLSCRASQNVDHYLAWYQQKPGQAPRLLIYDASNRATGIPARFSGSGSGTDFTLTISSLEPEDFAVYYCQQRSNWPPWTFGQGTKVEIKR
notes: Fab made in E. coli: VH on CH1 with His6 and Flag tags (Plasmid A), VL on kappa CL (Plasmid C); also called H: APFF G56A & L: NDH
B6: Fab VH1-46_IGHD6-6*01_IGHJ1*01 S102A/S103P/S104F/H111F S54A & L6_IGKJ1*01 S28N/S30D/S31H (Fab, V domains shown)
VH: B5 VH with S54A, A56G
VL: B5 VL
notes: Fab made in E. coli: VH on CH1 with His6 and Flag tags (Plasmid A), VL on kappa CL (Plasmid C); also called H: APFF S54A & L: NDH

Tests used:
[1] = molecular target: T1, recombinant human DLL4 (Cat# 1506-D4/CF, R&D Systems) (human, UniProt Q9NR61 27-529); experiment: ELISA, DLL4 coated, Fab 0.74 nM
T1 construct: Bought protein; also called hDLL4; rHuman DLL4
Procedure: (§1) The plate was blocked by adding 1% BSA in Tris-buffered Saline Tween (TBST) and incubating for 1 hour at room temperature followed by washing 2 times with 150 μl TBST. A Fab antibody was serially diluted in 1% BSA in PBS. A 50 μl aliquot of each serial dilution was added, in triplicate, to each well and the plate was incubated for 1 hour at room temperature followed by washing 2 times with TBST. 50 μl of either goat anti-human kappa HRP conjugated secondary antibody (Cat # A7164-1 mL, Sigma-Aldrich) or goat anti-human lambda HRP conjugated secondary antibody (Cat # L1645-1 ml, Sigma-Aldrich), diluted 1:1000 in 1% BSA in PBS, was added to each well and the plate was incubated for 30 minutes at room temperature followed by washing 3 times with 200 μl TBST. Finally, 50 μl TMB one-component reagent (Cat # TMBW-1000-01, BioFax) was added and allowed to develop for 2 minutes at room temperature. The reaction was immediately halted by the addition of 50 μl 0.5M H₂SO₄ and the absorbance at 450 nm was measured using an ELISA plate reader.

[2] = molecular target: T1, recombinant human DLL4 (Cat# …); experiment: ELISA, DLL4 coated, Fab 33.33 nM
Procedure: as §1

[3] = molecular target: T1, recombinant human DLL4 (Cat# …); experiment: ELISA, DLL4 coated, Fab 1.23 nM
Procedure: as §1

[4] = molecular target: T1, recombinant human DLL4 (Cat# …); experiment: SPR (ProteOn), hDLL4 amine-coupled on chip
Procedure: In this example, the binding affinities of selected anti-DLL4 Fabs to recombinant human DLL4 (hDLL4, Cat# 1506-D4/CF, R&D Systems) were analyzed using Surface Plasmon Resonance (SPR) (Biosensor Tools, Salt Lake City, Utah). The Fabs analyzed include germline-derived antibodies and germline-modified DLL4 antibodies. Recombinant hDLL4 was immobilized on a SPR chip using amine coupling at three different surface densities. The Fabs were serially diluted 3-fold, with an initial concentration of 1 μM. Binding studies were run on a ProteOn system using a GLM sensor chip in 10 mM HEPES, pH 7.4, 150 mM NaCl, 0.01% Tween-20, and 0.1 mg/ml BSA at 25° C. The response data from each surface was globally fit to determine the binding constants.

[5] = molecular target: T1, recombinant human DLL4 (Cat# …); experiment: ELISA, DLL4 coated, Fab 12.5 nM
Procedure: (§2) In this example, an ELISA binding assay was used to assess the dose-dependent binding of Fab antibodies to recombinant human DLL4 and recombinant mouse DLL4.
as §1

[6] = molecular target: T1, recombinant human DLL4 (Cat# …); experiment: ELISA, DLL4 coated, Fab 3.70 nM
Procedure: as §1

[7] = molecular target: T1, recombinant human DLL4 (Cat# …); experiment: ELISA, DLL4 coated, Fab 6.67 nM
Procedure: as §1

[8] = molecular target: T1, recombinant human DLL4 (Cat# …); experiment: ELISA, DLL4 coated, Fab 20 nM
Outline: (§3)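 Block 1% BSA/TBST 1 h RT; Fab serial dilutions (1% BSA/PBS, triplicate) 1 h RT; HRP anti-human kappa or lambda 1:1000, 30 min RT; TMB 2 min; 0.5M H₂SO₄ stop; OD450.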

[9] = molecular target: T1, recombinant human DLL4 (Cat# …); experiment: ELISA, DLL4 coated, Fab 2.22 nM
Procedure: as §1

[10] = molecular target: T1, recombinant human DLL4 (Cat# …); experiment: ELISA, DLL4 coated, Fab 11.11 nM
[11] = molecular target: T1, recombinant human DLL4 (Cat# …); experiment: ELISA, DLL4 coated, Fab 0.14 nM
Procedure: as §1

[12] = molecular target: T1, recombinant human DLL4 (Cat# …); experiment: ELISA, DLL4 coated, Fab 0.41 nM
Procedure: as §1

[13] = molecular target: T1, recombinant human DLL4 (Cat# …); experiment: ELISA, DLL4 coated, Fab 100 nM
Procedure: as §1

[14] = molecular target: T1, recombinant human DLL4 (Cat# …); experiment: ELISA, DLL4 coated, Fab 25 nM
Outline: as §3

[15] = molecular target: T1, recombinant human DLL4 (Cat# …); experiment: ELISA, DLL4 coated, Fab 100 nM; remark: listed apart in the source
Procedure: as §2, §1

[16] = molecular target: T1, recombinant human DLL4 (Cat# …); experiment: ELISA, DLL4 coated, Fab 50 nM
Procedure: as §2, §1

[17] = molecular target: T1, recombinant human DLL4 (Cat# …); experiment: ELISA, DLL4 coated, Fab 50 nM; remark: listed apart in the source
Procedure: as §1

[18] = molecular target: T1, recombinant human DLL4 (Cat# …); experiment: ELISA, DLL4 coated, Fab 75 nM
[19] = molecular target: T1, recombinant human DLL4 (Cat# …); experiment: ELISA, DLL4 coated, Fab 100 nM; remark: listed apart in the source

Row | Binder | ELISA absorbance at 450 nm [2] | ELISA absorbance at 450 nm [3] | Kd [4] | koff [4] | kon [4] | ELISA absorbance at 450 nm [5] | ELISA absorbance at 450 nm [6] | ELISA absorbance at 450 nm [10] | ELISA absorbance at 450 nm [11] | ELISA absorbance at 450 nm [12] | ELISA absorbance at 450 nm [13] | ELISA absorbance at 450 nm [14] | ELISA absorbance at 450 nm [15] | ELISA absorbance at 450 nm [16] | ELISA absorbance at 450 nm [17] | ELISA absorbance at 450 nm [18] | ELISA absorbance at 450 nm [19] | also measured
1 | B1 | 0.08 A450 | 0.01 A450 | 36.2 nM | 0.0717 s⁻¹ | 2.09e+06 M⁻¹ s⁻¹ | 0.23 A450 | 0.03 A450 | 0.04 A450 | 0 A450 | 0.01 A450 | 0.16 A450 | 0.26 A450 | 0.45 A450 | 0.32 A450 | – | – | – | ELISA absorbance at 450 nm [1]: 0.002 A450; ELISA absorbance at 450 nm [7]: 0.023 A450; ELISA absorbance at 450 nm [8]: 0.054 A450; ELISA absorbance at 450 nm [9]: 0 A450
2 | B2 | 0.19 A450 | 0.03 A450 | 3.3 nM | 0.036 s⁻¹ | 1.1e+07 M⁻¹ s⁻¹ | 0.45 A450 | 0.03 A450 | 0.07 A450 | 0.03 A450 | 0.02 A450 | 0.34 A450 | 0.58 A450 | 1 A450 | 0.81 A450 | – | – | – | –
3 | B3 | 0.35 A450 | 0.03 A450 | 5 nM | 0.0147 s⁻¹ | 2.96e+06 M⁻¹ s⁻¹ | 0.63 A450 | 0.06 A450 | 0.17 A450 | 0.02 A450 | 0.01 A450 | 0.69 A450 | 0.9 A450 | 1.14 A450 | 1.02 A450 | – | – | – | –
4 | B4 | 0.12 A450 | 0.03 A450 | – | – | – | 0.41 A450 | 0.03 A450 | 0.06 A450 | 0.02 A450 | 0.03 A450 | 0.24 A450 | 0.59 A450 | 1.01 A450 | 0.8 A450 | – | – | – | –
5 | B5 | – | – | – | – | – | – | – | – | – | – | – | – | – | – | 0.366 A450 | 0.543 A450 | 0.453 A450 | –
6 | B6 | – | – | – | – | – | – | – | – | – | – | – | – | – | – | 0.154 A450 | 0.212 A450 | 0.213 A450 | –
